Data published in the supplement of paper PMC9170038.

Assays:
[1] = tested on: MS2 coat protein; assay: apparent KD of MS2 coat protein, switch OFF state (with FMN for OFF switches, without FMN for ON switches); designed switch direction (-1 OFF switch, 1 ON switch): -1; higher = weaker reporter binding; details: FMN input: 0 or 200 uM; Eterna round: R93 (includes R88 designs)
Summary of the method: (§1)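 On-chip transcription from Illumina sequencing clusters produced the designed RNA switches. These were titrated with SNAP-549-labelled MS2 coat protein (twofold steps, 0.7 or 1.5 nM to 3 µM) in 100 mM Tris-HCl pH 7.5, 80 mM KCl, 4 mM MgCl2, with or without constant ligand. The apparent KD given is the per-design median of normalised cluster binding-curve fits.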

[2] = tested on: MS2 coat protein; assay: apparent KD of MS2 coat protein, switch ON state; designed switch direction (-1 OFF switch, 1 ON switch): -1; higher = weaker reporter binding; details: FMN input: 0 or 200 uM; Eterna round: R93 (includes R88 designs)
Summary of the method: as §1

Sequence	apparent KD of MS2 coat protein [1] [nM]	apparent KD of MS2 coat protein [2] [nM]
GAAAAGUGAGGAUAUGUCAAAAGUCACAAAAGUGACAAAAGACAGAAGGCACAUGAGGAUCACCCAUGUGGAAA [Mat - Exaclusion 4 - Eli mod - D51]	38.4	30.9
AAAAAGUGAGGAUAUGUCAAAGGUCACGAAAGUGACAAAGGACAGAAGGCACAUGAGGAUCACCCAUGUGAAAA [Fiskers Exclusion 4D1 65% - Early + late G segment 2]	32.3	26.7
GAAAAGUCAGGAUAUGCAGAUAAAAAAACGAAAAAAAAUCUGCAGAAGGGACAUGAGGAUCACCCAUGUAAAAA [Mat - Exclusion 4 - Mayanna - D109]	45.7	45.6
AAACCACAUGAGGAUCACCCAUGUUAGGAUAUGCUAUGGAAAUAAAAAAUAAAACAUAGCAGAAGGGACAAAAA [Mat - Exclusion 1 - Eli mod - D35]	19.3	19.7
GCUGUGCUAGGAUAUACAUGAGGAUCACCCAUGUGAGAGAAAAAAGUGAGAAAGAAAAGUAGAAGGAGCGUAGG [salish99-ex3-100]	59.2	29.1
AAAAAACAUGAGGAUCACCCAUGUGAGGAUAUCCAGAAUGGAAUAAAAUAACAAGAAAGGAGAAGGCACAAAAA [Ex 1 May 37]	42.1	67.7
AAUAAGAGAGGAUAUACUAAAGAAAUGAAAAGGGAUAAAGAACAUGAGGAUCACCCAUGUAGAAGGCUCAAUAA [Khyan]	40.3	24.3
AAGAAACAUGAGGAUCACCCAUGUGAGGAUAUCUAAAAGAAAAGAAAAGAAAGAAGAAGGAGAAGGCACAAAGG [H—]	29	34.3
GAAACUAGAGGAUAUACGUACAUGUCAAAAGACGUGAAGGGACAUGAGGAUCACCCAUGUAGAAGGCUAGAAAG [Mat - Exclusion 2 - JL mod - D98]	54.2	47.8
AAAAAGGCAGGAUAUACAAAAAAAUUUUUAAAAAAAAAAAAACAUGAGGAUCACCCAUGUAGAAGGGCCAAAAA [Ex 2.1]	43.3	52
UUUACGUGAGGAUAUGCGAAUAGUACGUAAGUCUUACAGACGCAGAAGGCACAUGAGGAUCACCCAUGUGAACC [JR_Exc004_Sub310]	55.9	22.7
AGCUAGUCAGGAUAUACGAACAAGACAAAAGACGAGAACGGACAUGAGGAUCACCCAUGUAGAAGGGACUAGCA [Diamond 8]	28.8	25.7
AGCUAGUCAGGAUAUACGAACAUGUCAAAAGACGUGAAAGAACAUGAGGAUCACCCAUGUAGAAGGGACUAGCA [Mat - Exclusion 2 - JL-Eli mod - D48]	18	19.4
GGUUGGCGAGGAUAUACAUGAGGAUCACCCAUGUGAGAGAAGAAAGUGAGGAGGAGAAGUAGAAGGCGCUGACG [salish99-ex3-20]	98.9	51.4
AAAAAACAUGAGGAUCACCCAUGUAAGGAUAUACAAAACCCAUAUAAAAAGGGAAAAAGUAGAAGGUGCAAAAA [wbt round 1 mod 7]	23.1	22.5
AAAAAACAUGAGGAUCACCCAUGUCAGGAUAUACAAAAUAAAAUAAAAAUAAAAUAAAGUAGAAGGGACAAAAA [May 8]	25.4	28.5
AACAAACAUGAGGAUCACCCAUGUCAGGAUAUGCAAACAACAAACAACAAACAACAAAGCAGAAGGGAUAGGAA [63%, Olong, 4]	21.2	27.1
AAGAAGACAGGAUAUACAAAAUAAAAGAAAAGAAAGAAAGAACAUGAGGAUCACCCAUGUAGAAGGGUCAAGAA [Sekhemkare Amenemhat V]	31.1	69.9
GUGUACAGAGGAUAUACAUAAGCAUGGAAACAUGCAAGAUCACAUGAGGAUCACCCAUGUAGAAGGCUGUACAC [Ex2: 738]	180	342
AAAAAGUGAGGAUAUUCGGAUAGGAAAACGAAAACCUAUCCGAAGAAGGCACAUGAGGAUCACCCAUGUGGAAG [Mat - Exaclusion 4 - Eli mod - D47]	48.3	37.2
GAAGAACAUGAGGAUCACCCAUGUCAGGAUAUACAGAAGGGAAUAAUAUAACCUGGAAGUAGAAGGGACAAGAA [Ex 1 May 44]	65.4	30.2
AAUAAGUCAGGAUAUACUAAAGAAAUGAAAAGAAAUAAAGAACAUGAGGAUCACCCAUGUAGAAGGGACAAUAA [Anati Djedkare]	53.6	100
GAAAAACAUGAGGAUCACCCAUGUCAGGAUAUACAAAAUAAAAUAAAAAUAAAAUAAAGUAGAAGGGACAAAAG [Mat - Same state - Mayanna Mod - D107]	49	36.7

Sequence	apparent KD of MS2 coat protein [1] [nM]	apparent KD of MS2 coat protein [2] [nM]
AAGAACGUAGGAUAUACAUGAGGAUCACCCAUGUAAAAGAAAGAGGGAAAAGAGAAAAGUAGAAGGACGAAGAA [Cleopatra II]	38.2	26.1
AACUGACAUGAGGAUCACCCAUGUCAGGAUAUGAUUUGACGAAAUAAAUAAAGUCAUAUCAGAAGGGACAUGGA [Design 80: Sub-opt U]	50.4	25
CACGUACAUGAGGAUCACCCAUGUUAGGAUAUGCCGGGUAAGAGAAAACUAAAAAUCCGCAGAAGGGACGAAAC [Bilbo Confounded 15 - Jieux - Exclusion 1]	33.8	32
CGGAGGAAAGGAUAUACACAAUAAAAGAAGUGAUCCUUGAGACAUGAGGAUCACCCAUGUAGAAGGUUCACUGA [Zaza]	15.9	21.9
AGAUAGUCAGGAUAUACGAAAAUGUAAAAAGAAGUGAAGGGACAUGAGGAUCACCCAUGUAGAAGGGACUAGAA [74%, Web mod - With 5 less C's]	86.6	100
AUAUAACAUGAGGAUCACCCAUGUCAGGAUAUCGAACCCAACACAACCAAAAUGUCGGCGAGAAGGGACAAAAA [Default title]	22.6	27.5
CUCGUGUUAGGAUAUGGAUAGCCGUUUGACGAGCGAGGGCACUAGAAGGAACAUGAGGAUCACCCAUGUAAAAA [Velema]	28.1	29.4
AAAAAGAGAGGAUAUACAUGAGGAUCACCCAUGUGAAAGACGAAAAAAAGUCUAAAAUGUAGAAGGCUCAAAAA [65%, Moding Exclusion3-cac2, 13]	89.7	23.1
AUCAUGUAAGGAUAUGUAAGAAAAGAAAAGAAAGAAAAGAAACAGAAGGUACAUGAGGAUCACCCAUGUAAGAA [EteRNA is fun!]	34.5	26.5
AACAUGUGAGGAUAUAAAAUGAAUAUAAAUUAUUAUCUUGAUUAGAAGGCACAUGAGGAUCACCCAUGUCUGAA [E4-1.2]	25.2	23.8
CUCUUGUGAGGAUAUCUAAGAAAAGAAGAGAAAGAAAAGAAAGAGAAGGCACAUGAGGAUCACCCAUGUAAGAA [EteRNA is fun!]	56.1	29
AAUAACCGAGGAUAUACAAAACCUGUGAUCUAGUGGAUUUUACAUGAGGAUCACCCAUGUAGAAGGCGGACAAG [Atdiiste]	183	49.9
AACUAACAUGAGGAUCACCCAUGUCAGGAUAUGCAAAGAUCGAUCGAACGAUCGAUAAGCAGAAGGGACAAAAA [Amethyst 95]	36.9	23.3
CUCUAGUUAGGAUAUCCAAGAAAAGAAAAGAAAGAAAAGAAGGAGAAGGAACAUGAGGAUCACCCAUGUAAGAA [EteRNA is fun!]	29.4	27.8
AAAAGGGCAGGAUAUGCGUACUCACGGGAAAGCUGGAUGGUACAUGAGGAUCACCCAUGUAGAAGGGCUAAAAA [Dora Explored 18 - Jieux - Exclusion 2]	21.4	32.8
AAAAAGUGAGGAUAUACAUGAGGAUCACCCAUGUUAAAAAAGGAAAAAAAAAAAAAAUGUAGAAGGCGCAAAAA [water's exclusion 3]	36	36.9
AAGAAGUGAGGAUAUACAAAAUAAAAGAAAAGAAAGAAAGAACAUGAGGAUCACCCAUGUAGAAGGCACAAGAA [Sekhemkare Amenemhat V]	17.8	22
AAAAAGUCAGGAUAUGUGGAAAAAAUAAAAAAAAUAAAAACACAGAAGGGACAUGAGGAUCACCCAUGUAAAAA [Ex 4 May 19]	47.2	71.7
AAGGGACAUGAGGAUCACCCAUGUUAGGAUAUGCUAUGGAAAAUAAAAAUAAAACAUAGCAGAAGGAACAAAAA [Denovo 8]	61.8	39.2
AGUUGGCGAGGAUAUACAUGAGGAUCACCCAUGUGAGAGUAAGAAGUGAGAAAGAGAAGUAGAAGGCGCUGACA [Ruby 55]	220	46.5
CAGUACUGAGGAUAUACAUGAGGAUCACCCAUGUGAAAAAGCUACGAAAGUAGCAAAUGUAGAAGGCAGUACUG [Ex3: 806]	273	28.9
GGAAAACAUGAGGAUCACCCAUGUAAGGAUAUGCAAAGGAUAUAGAAGGAAAAAAAAAGCAGAAGGUACAAAGG [salish99-ex1-20]	53.6	26.5
